Source: patent publication US20250002610A1 (Genmab, published 2025)

How the values were obtained:
[1] = target: T1, mouse FAPα on Expi293F cells (mouse (Mus musculus), UniProt P97321 1-761); test: flow cytometry on Expi293F cells transiently expressing mouse FAPα, gMFI PE
T1 sequence: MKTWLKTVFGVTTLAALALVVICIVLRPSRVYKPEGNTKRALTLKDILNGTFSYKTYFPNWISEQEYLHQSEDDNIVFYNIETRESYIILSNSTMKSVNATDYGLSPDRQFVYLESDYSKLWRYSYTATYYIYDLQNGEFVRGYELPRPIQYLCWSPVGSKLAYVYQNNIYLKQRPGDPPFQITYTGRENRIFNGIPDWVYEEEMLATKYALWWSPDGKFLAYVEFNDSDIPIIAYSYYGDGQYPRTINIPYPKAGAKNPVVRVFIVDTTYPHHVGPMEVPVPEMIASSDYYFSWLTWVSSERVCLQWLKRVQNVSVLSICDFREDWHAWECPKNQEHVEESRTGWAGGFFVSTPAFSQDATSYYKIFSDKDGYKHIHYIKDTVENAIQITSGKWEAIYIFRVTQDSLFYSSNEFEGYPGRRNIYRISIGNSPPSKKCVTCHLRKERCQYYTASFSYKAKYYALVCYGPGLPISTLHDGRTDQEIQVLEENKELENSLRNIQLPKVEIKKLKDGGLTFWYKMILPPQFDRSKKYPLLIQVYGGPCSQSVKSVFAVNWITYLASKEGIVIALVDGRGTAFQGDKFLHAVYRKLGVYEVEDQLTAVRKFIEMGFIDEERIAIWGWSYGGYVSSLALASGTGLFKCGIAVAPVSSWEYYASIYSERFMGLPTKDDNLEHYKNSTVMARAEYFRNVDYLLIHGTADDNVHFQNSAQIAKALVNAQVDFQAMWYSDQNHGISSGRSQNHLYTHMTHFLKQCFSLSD
Experimental: Binding of BisG1-FAPα-FERL/DR4-FERR, BisG1-FAPα-FEAL/b12-FEAR and IgG1-FAPα-FERL to FAPα of species commonly used for nonclinical toxicology studies was assessed by flow cytometry using Expi293F cells transiently expressing FAPα from different animal species. IgG1-b12 was included as negative control.
Expi293F cells expressing recombinant FAPα from various species (human, cynomolgus monkey, dog, pig, rat or mouse) were seeded (20,000 cells/well) in 96-Well round bottom plates (Greiner Bio-one, Cat #650101). Antibody dilutions were prepared using FACS buffer, consisting of PBS (Capricorn Scientific, Cat #PBS-10XA, diluted to 1×PBS in distilled water)+1% BSA (Roche, Cat #10735086001)+0.02% Sodium Azide (Bio-World, Cat #41920044-3). Plates were centrifuged, supernatant was removed, and cells were resuspended in 100 μL of antibody dilutions (concentration range 30-0.00017 μg/mL with three-fold serial dilutions using FACS buffer) of BisG1-FAPα-FERL/DR4-FERR, BisG1-FAPα-FEAL/b12-FEAR, IgG1-FAPα-FERL and IgG1-b12 and incubated for 30 min at 4° C. […] After 30 min incubation at 4° C., cells were washed with FACS buffer and resuspended in FACS buffer supplemented with TO-PRO-3 Iodide viability marker (Invitrogen, Cat #T3605, diluted 1:4,000). Antibody binding to viable cells (gMFI of PE on TO-PRO-3 negative cells) was analyzed by flow cytometry on a FACS Celesta and FACS_Diva software (first two experiments) or iQue® 3 and FlowJo software (last experiment). gMFI was determined and visualized using GraphPad Prism. Binding curves were analyzed using nonlinear regression analysis. The concentration (pg/mL) at which 50% of the maximal effect was observed (EC₅₀) was derived from the fitted curves.

[2] = target: T2, human DR4 (Death Receptor 4), cell surface expressed on human tumor cell lines (human, UniProt O00220 24-468); test: flow cytometry, DLD-1 cells, average ± SEM
T2 construct: also called TNFRSF10A; TRAIL-R1
T2 sequence: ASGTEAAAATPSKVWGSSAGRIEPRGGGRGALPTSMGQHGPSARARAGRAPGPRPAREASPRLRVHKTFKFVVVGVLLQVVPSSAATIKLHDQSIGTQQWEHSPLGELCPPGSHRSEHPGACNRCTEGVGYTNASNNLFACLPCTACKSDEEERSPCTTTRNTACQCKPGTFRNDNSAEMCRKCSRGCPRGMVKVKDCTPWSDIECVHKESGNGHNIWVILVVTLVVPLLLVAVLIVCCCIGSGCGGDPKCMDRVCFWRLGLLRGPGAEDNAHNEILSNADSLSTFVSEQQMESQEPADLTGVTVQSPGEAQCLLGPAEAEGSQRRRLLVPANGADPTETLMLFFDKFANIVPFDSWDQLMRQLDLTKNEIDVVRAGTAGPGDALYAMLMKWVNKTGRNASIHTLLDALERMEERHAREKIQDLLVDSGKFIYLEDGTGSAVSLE

[3] = target: T2, human DR4 (Death Receptor 4), cell …; test: flow cytometry, MDA-MB-231 cells, N = 1

B1: BisG1-FAPα-FERL/DR4-FERR (bispecific antibody, human IgG1, kappa, lambda)
heavy 1: EVQLLESGGGLVQPGGSPRLSCEASGFTFSSYALSWVRQAPGKGLEWVSAISGSGGGRYYADSVKGRFTISRDNSKNTLFLQMNSLRAEDTAVYYCAKEGYSSSGTYWDHWGQGTLVTVSSASTKGPSVFPLAPSSKSTSGGTAALGCLVKDYFPEPVTVSWNSGALTSGVHTFPAVLQSSGLYSLSSVVTVPSSSLGTQTYICNVNHKPSNTKVDKRVEPKSCDKTHTCPPCPAPEFERGPSVFLFPPKPKDTLMISRTPEVTCVVVDVSHEDPEVKFNWYVDGVEVHNAKTKPREEQYNSTYRVVSVLTVLHQDWLNGKEYKCKVSNKALPAPIEKTISKAKGQPREPQVYTLPPSREEMTKNQVSLTCLVKGFYPSDIAVEWESNGQPENNYKTTPPVLDSDGSFLLYSKLTVDKSRWQQGNVFSCSVMHEALHNHYTQKSLSLSPG
light 1: AIQMTQSPSSVSASVGDRVTITCRASQGVSSWLAWYQQKPGRAPKLLIYVASTLQSGVPSRFSGSGSGTDFTLTINSLQPEDFATYYCQQANSFPPTFGQGTRLEMKRTVAAPSVFIFPPSDEQLKSGTASVVCLLNNFYPREAKVQWKVDNALQSGNSQESVTEQDSKDSTYSLSSTLTLSKADYEKHKVYACEVTHQGLSSPVTKSFNRGEC
heavy 2: QVQLQESGPGLVKPSGTLSLTCAVSGGSISSYSWWSWIRQPPGKGLEWIGELYHSGSTNYNPSLKSRVTISVDKSKNQFSLKLRSVTAADTAVYYCVRGVATIDYWGQGTLVTVSSASTKGPSVFPLAPSSKSTSGGTAALGCLVKDYFPEPVTVSWNSGALTSGVHTFPAVLQSSGLYSLSSVVTVPSSSLGTQTYICNVNHKPSNTKVDKRVEPKSCDKTHTCPPCPAPEFERGPSVFLFPPKPKDTLMISRTPEVTCVVVDVSHEDPEVKFNWYVDGVEVHNAKTKPREEQYNSTYRVVSVLTVLHQDWLNGKEYKCKVSNKALPAPIEKTISKAKGQPREPQVYTLPPSREEMTKNQVSLTCLVKGFYPSDIAVEWESNGQPENNYKTTPPVLDSDGSFFLYSRLTVDKSRWQQGNVFSCSVMHEALHNHYTQKSLSLSPG
light 2: QSALTQPPSASGSPGQSVTISCTGTSSDVGGYNFVSWYQQDPGKAPKLLIYEVTKRPSGVPDRFSGSKSGNTASLTVSGLQAEDEADYYCSSYAGSNNVMFGGGTKLTVLGQPKAAPSVTLFPPSSEELQANKATLVCLISDFYPGAVTVAWKADSSPVKAGVETTTPSKQSNNKYAASSYLSLTPEQWKSHRSYSCQVTHEGSTVEKTVAPTECS
notes: Human IgG1 bispecific made by controlled Fab-arm exchange of IgG1-FAPα-FERL and IgG1-DR4-FERR; monovalent for FAPα and for DR4; also called GEN1057
binding result [1]: binds
EC50 [2]: 0.72 µg/mL
EC50 [3]: 0.71 µg/mL
